Assay results: IntAct's records for PubMed 35512704

B1: Speckle-type POZ protein (Homo sapiens), O43791 (parent)
chain: MSRVPSPPPPAEMSSGPVAESWCYTQIKVVKFSYMWTINNFSFCREEMGEVIKSSTFSSGANDKLKWCLRVNPKGLDEESKDYLSLYLLLVSCPKSEVRAKFKFSILNAKGEETKAMESQRAYRFVQGKDWGFKKFIRRDFLLDEANGLLPDDKLTLFCEVSVVQDSVNISGQNTMNMVKVPECRLADELGGLWENSRFTDCCLCVAGQEFQAHKAILAARSPVFSAMFEHEMEESKKNRVEINDVEPEVFKEMMCFIYTGKAPNLDKMADDLLAAADKYALERLKVMCEDALCSNLSVENAAEILILADLHSADQLKTQAVDFINYHASDVLETSGWKSMVVSHPHLVAEAYRSLASAQCPFLGPPRKRLKQS

Variants of: B1
Settings: with brd4_human BRD4, O60885

| effect of a mutation on the interaction | Variant |
| --- | --- |
| disrupting interaction strength | Y87C |

Variants of: B1
Settings: with ncoa3_human NCOA3, Q9Y6Q9

| effect of a mutation on the interaction | Variant |
| --- | --- |
| disrupting interaction strength | Y87C |

Variants of: B1
Settings: with jun_human JUN

| effect of a mutation on the interaction | Variant |
| --- | --- |
| disrupting interaction strength | Y87C |

Variants of: B1
Settings: with akt1_human AKT1, P31749

| effect of a mutation on the interaction | Variant |
| --- | --- |
| with no effect | Y87C |

Variants of: B1
Settings: with alk_human ALK

| effect of a mutation on the interaction | Variant |
| --- | --- |
| with no effect | Y87C |

Variants of: B1
Settings: with aph1a_human APH1A

| effect of a mutation on the interaction | Variant |
| --- | --- |
| with no effect | Y87C |

Variants of: B1
Settings: with arnt_human ARNT

| effect of a mutation on the interaction | Variant |
| --- | --- |
| with no effect | Y87C |

Variants of: B1
Settings: with arc1a_human ARPC1A

| effect of a mutation on the interaction | Variant |
| --- | --- |
| with no effect | Y87C |

Variants of: B1
Settings: with asxl2_human ASXL2, Q76L83

| effect of a mutation on the interaction | Variant |
| --- | --- |
| with no effect | Y87C |

Variants of: B1
Settings: with bakor_human ATG14, Q6ZNE5

| effect of a mutation on the interaction | Variant |
| --- | --- |
| with no effect | Y87C |

Variants of: B1
Settings: with atm_human ATM

| effect of a mutation on the interaction | Variant |
| --- | --- |
| with no effect | Y87C |

Variants of: B1
Settings: with atpb_human ATP5F1B

| effect of a mutation on the interaction | Variant |
| --- | --- |
| with no effect | Y87C |

Variants of: B1
Settings: with aurkb_human AURKB

| effect of a mutation on the interaction | Variant |
| --- | --- |
| with no effect | Y87C |

Variants of: B1
Settings: with axin2_human AXIN2, Q9Y2T1

| effect of a mutation on the interaction | Variant |
| --- | --- |
| with no effect | Y87C |

Variants of: B1
Settings: with ufo_human AXL

| effect of a mutation on the interaction | Variant |
| --- | --- |
| with no effect | Y87C |

Variants of: B1
Settings: with za2g_human AZGP1, P25311

| effect of a mutation on the interaction | Variant |
| --- | --- |
| with no effect | Y87C |

Variants of: B1
Settings: with b2mg_human B2M

| effect of a mutation on the interaction | Variant |
| --- | --- |
| with no effect | Y87C |

Variants of: B1
Settings: with bap1_human BAP1, Q92560

| effect of a mutation on the interaction | Variant |
| --- | --- |
| with no effect | Y87C |

Variants of: B1
Settings: with bcor_human BCOR

| effect of a mutation on the interaction | Variant |
| --- | --- |
| with no effect | Y87C |

Variants of: B1
Settings: with bcorl_human BCORL1, Q5H9F3

| effect of a mutation on the interaction | Variant |
| --- | --- |
| with no effect | Y87C |

Variants of: B1
Settings: with birc2_human BIRC2, Q13490
birc2_human BIRC2, Q13490, sequence (Q13490 whole entry): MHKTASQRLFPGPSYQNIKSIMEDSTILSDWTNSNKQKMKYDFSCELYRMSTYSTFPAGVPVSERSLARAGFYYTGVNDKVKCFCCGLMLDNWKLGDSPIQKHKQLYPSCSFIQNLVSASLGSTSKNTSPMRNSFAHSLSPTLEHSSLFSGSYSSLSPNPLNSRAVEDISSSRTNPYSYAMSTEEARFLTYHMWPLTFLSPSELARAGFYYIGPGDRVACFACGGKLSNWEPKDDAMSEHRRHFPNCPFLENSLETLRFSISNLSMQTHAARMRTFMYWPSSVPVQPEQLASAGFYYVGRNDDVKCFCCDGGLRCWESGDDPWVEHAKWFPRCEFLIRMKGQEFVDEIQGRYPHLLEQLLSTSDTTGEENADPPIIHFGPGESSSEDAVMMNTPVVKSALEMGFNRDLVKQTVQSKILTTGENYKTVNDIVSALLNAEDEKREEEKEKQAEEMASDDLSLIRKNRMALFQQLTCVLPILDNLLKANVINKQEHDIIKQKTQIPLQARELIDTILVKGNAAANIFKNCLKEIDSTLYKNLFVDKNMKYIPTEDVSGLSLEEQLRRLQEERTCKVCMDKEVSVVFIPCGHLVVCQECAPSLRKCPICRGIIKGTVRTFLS

| effect of a mutation on the interaction | Variant |
| --- | --- |
| with no effect | Y87C |

Variants of: B1
Settings: with brd4_human BRD4, O60885
Remark: another data set of the same source

| effect of a mutation on the interaction | Variant |
| --- | --- |
| with no effect | Y87C |

Variants of: B1
Settings: with baba2_human BABAM2, Q9NXR7

| effect of a mutation on the interaction | Variant |
| --- | --- |
| with no effect | Y87C |

Variants of: B1
Settings: with btg1_human BTG1, P62324

| effect of a mutation on the interaction | Variant |
| --- | --- |
| with no effect | Y87C |

Variants of: B1
Settings: with ccnd1_human CCND1, P24385

| effect of a mutation on the interaction | Variant |
| --- | --- |
| with no effect | Y87C |

Variants of: B1
Settings: with ccnd2_human CCND2, P30279

| effect of a mutation on the interaction | Variant |
| --- | --- |
| with no effect | Y87C |

Variants of: B1
Settings: with ccnd3_human CCND3, P30281
ccnd3_human CCND3, P30281, sequence (P30281 whole entry): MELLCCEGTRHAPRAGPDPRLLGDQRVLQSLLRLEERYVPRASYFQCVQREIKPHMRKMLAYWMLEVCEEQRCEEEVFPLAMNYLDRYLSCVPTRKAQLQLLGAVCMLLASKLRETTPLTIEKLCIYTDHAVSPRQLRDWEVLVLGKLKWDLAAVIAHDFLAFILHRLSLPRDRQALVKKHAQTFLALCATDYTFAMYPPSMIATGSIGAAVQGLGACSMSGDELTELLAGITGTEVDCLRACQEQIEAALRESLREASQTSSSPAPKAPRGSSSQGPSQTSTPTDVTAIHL

| effect of a mutation on the interaction | Variant |
| --- | --- |
| with no effect | Y87C |

Variants of: B1
Settings: with ccne1_human CCNE1, P24864
ccne1_human CCNE1, P24864, sequence (P24864 whole entry): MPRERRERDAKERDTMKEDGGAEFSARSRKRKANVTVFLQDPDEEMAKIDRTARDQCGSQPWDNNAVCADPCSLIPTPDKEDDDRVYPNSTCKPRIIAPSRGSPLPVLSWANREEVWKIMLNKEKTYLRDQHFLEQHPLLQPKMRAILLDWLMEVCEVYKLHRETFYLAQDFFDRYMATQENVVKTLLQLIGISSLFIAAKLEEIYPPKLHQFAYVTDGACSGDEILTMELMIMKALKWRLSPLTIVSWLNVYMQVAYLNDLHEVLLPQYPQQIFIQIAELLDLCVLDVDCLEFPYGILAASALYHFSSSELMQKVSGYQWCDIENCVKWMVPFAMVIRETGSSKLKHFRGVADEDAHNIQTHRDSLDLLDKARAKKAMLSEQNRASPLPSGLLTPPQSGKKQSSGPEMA

| effect of a mutation on the interaction | Variant |
| --- | --- |
| with no effect | Y87C |

Variants of: B1
Settings: with cd44_human CD44, P16070

| effect of a mutation on the interaction | Variant |
| --- | --- |
| with no effect | Y87C |

Variants of: B1
Settings: with cd79b_human CD79B

| effect of a mutation on the interaction | Variant |
| --- | --- |
| with no effect | Y87C |

Variants of: B1
Settings: with cdc27_human CDC27, P30260

| effect of a mutation on the interaction | Variant |
| --- | --- |
| with no effect | Y87C |

Variants of: B1
Settings: with cdc73_human CDC73, Q6P1J9

| effect of a mutation on the interaction | Variant |
| --- | --- |
| with no effect | Y87C |

Variants of: B1
Settings: with cdk4_human CDK4, P11802

| effect of a mutation on the interaction | Variant |
| --- | --- |
| with no effect | Y87C |

Variants of: B1
Settings: with cdk6_human CDK6, Q00534

| effect of a mutation on the interaction | Variant |
| --- | --- |
| with no effect | Y87C |

Variants of: B1
Settings: with cdn2c_human CDKN2C

| effect of a mutation on the interaction | Variant |
| --- | --- |
| with no effect | Y87C |

Variants of: B1
Settings: with chd1l_human CHD1L

| effect of a mutation on the interaction | Variant |
| --- | --- |
| with no effect | Y87C |

Variants of: B1
Settings: with chd2_human CHD2, O14647

| effect of a mutation on the interaction | Variant |
| --- | --- |
| with no effect | Y87C |

Variants of: B1
Settings: with chk2_human CHEK2, O96017
chk2_human CHEK2, O96017, sequence (O96017 whole entry): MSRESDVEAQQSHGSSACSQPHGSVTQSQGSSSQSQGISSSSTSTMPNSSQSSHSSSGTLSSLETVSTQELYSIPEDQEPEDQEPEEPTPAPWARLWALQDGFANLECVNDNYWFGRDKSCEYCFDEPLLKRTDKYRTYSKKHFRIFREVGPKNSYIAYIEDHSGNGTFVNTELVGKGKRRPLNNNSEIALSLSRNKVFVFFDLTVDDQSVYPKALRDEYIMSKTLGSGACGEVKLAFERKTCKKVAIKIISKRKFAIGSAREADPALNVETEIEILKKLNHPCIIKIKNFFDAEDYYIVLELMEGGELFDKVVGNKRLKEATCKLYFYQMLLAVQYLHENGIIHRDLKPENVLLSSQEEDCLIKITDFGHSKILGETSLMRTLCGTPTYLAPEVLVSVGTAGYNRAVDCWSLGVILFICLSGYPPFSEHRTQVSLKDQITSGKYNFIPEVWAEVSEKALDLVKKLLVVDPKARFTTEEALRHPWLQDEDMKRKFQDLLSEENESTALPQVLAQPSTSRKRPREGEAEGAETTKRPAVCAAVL

| effect of a mutation on the interaction | Variant |
| --- | --- |
| with no effect | Y87C |

Variants of: B1
Settings: with ch3l1_human CHI3L1, P36222

| effect of a mutation on the interaction | Variant |
| --- | --- |
| with no effect | Y87C |

Variants of: B1
Settings: with csf1r_human CSF1R

| effect of a mutation on the interaction | Variant |
| --- | --- |
| with no effect | Y87C |

Variants of: B1
Settings: with ctla4_human CTLA4, P16410

| effect of a mutation on the interaction | Variant |
| --- | --- |
| with no effect | Y87C |

Variants of: B1
Settings: with cul3_human CUL3, Q13618

| effect of a mutation on the interaction | Variant |
| --- | --- |
| with no effect | Y87C |

Variants of: B1
Settings: with cul4b_human CUL4B

| effect of a mutation on the interaction | Variant |
| --- | --- |
| with no effect | Y87C |

Variants of: B1
Settings: with daxx_human DAXX

| effect of a mutation on the interaction | Variant |
| --- | --- |
| with no effect | Y87C |

Variants of: B1
Settings: with ddx5_human DDX5, P17844

| effect of a mutation on the interaction | Variant |
| --- | --- |
| with no effect | Y87C |

Variants of: B1
Settings: with dll3_human DLL3, Q9NYJ7

| effect of a mutation on the interaction | Variant |
| --- | --- |
| with no effect | Y87C |

Variants of: B1
Settings: with duox2_human DUOX2, Q9NRD8

| effect of a mutation on the interaction | Variant |
| --- | --- |
| with no effect | Y87C |

Variants of: B1
Settings: with e2f1_human E2F1, Q01094

| effect of a mutation on the interaction | Variant |
| --- | --- |
| with no effect | Y87C |

Variants of: B1
Settings: with e2f2_human E2F2, Q14209
e2f2_human E2F2, Q14209, sequence (Q14209 whole entry): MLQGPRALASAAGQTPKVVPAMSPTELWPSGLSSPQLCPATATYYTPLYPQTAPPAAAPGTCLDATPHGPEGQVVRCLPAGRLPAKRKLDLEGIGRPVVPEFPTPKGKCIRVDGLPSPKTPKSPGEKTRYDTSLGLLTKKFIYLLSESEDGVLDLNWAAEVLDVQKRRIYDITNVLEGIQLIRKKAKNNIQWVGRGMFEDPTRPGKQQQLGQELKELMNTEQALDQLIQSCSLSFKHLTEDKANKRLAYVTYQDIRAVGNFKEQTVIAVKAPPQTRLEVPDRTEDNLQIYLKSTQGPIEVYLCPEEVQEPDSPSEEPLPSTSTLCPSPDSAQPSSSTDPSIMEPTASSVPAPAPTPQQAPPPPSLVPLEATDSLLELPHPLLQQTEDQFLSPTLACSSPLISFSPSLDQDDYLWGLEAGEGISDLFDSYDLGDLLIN

| effect of a mutation on the interaction | Variant |
| --- | --- |
| with no effect | Y87C |

Variants of: B1
Settings: with e2f3_human E2F3, O00716
e2f3_human E2F3, O00716, sequence (O00716 whole entry): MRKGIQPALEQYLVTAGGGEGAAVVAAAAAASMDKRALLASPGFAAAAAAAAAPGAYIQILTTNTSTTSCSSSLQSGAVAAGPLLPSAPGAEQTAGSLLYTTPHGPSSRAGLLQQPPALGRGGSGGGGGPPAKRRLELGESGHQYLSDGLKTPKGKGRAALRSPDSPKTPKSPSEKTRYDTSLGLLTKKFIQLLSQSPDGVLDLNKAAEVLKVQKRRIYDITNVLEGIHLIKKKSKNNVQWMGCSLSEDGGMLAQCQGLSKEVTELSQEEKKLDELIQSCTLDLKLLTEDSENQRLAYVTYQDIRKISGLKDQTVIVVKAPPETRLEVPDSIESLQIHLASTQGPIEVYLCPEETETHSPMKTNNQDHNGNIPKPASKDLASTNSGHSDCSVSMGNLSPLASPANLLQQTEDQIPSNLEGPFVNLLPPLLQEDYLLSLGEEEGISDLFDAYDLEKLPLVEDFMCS

| effect of a mutation on the interaction | Variant |
| --- | --- |
| with no effect | Y87C |

Variants of: B1
Settings: with e2f5_human E2F5, Q15329
e2f5_human E2F5, Q15329, sequence (Q15329 whole entry): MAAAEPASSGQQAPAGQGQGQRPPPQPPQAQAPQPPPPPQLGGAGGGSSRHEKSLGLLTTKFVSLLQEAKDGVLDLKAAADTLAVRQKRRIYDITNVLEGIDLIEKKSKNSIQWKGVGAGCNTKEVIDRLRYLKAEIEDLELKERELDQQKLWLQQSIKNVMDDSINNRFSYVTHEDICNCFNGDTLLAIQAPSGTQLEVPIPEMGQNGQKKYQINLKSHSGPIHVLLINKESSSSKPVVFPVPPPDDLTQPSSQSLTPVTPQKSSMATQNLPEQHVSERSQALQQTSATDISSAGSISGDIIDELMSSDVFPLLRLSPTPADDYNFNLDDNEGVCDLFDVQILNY

| effect of a mutation on the interaction | Variant |
| --- | --- |
| with no effect | Y87C |

Variants of: B1
Settings: with e2f6_human E2F6, O75461
e2f6_human E2F6, O75461, sequence (O75461 whole entry): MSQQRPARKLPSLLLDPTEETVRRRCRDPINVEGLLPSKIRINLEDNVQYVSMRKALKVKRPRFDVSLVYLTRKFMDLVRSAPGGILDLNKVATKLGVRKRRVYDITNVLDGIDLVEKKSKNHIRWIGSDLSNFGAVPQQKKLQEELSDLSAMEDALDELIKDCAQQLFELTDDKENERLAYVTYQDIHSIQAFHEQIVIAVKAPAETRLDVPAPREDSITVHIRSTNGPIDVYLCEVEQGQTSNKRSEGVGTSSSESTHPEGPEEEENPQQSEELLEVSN

| effect of a mutation on the interaction | Variant |
| --- | --- |
| with no effect | Y87C |

Variants of: B1
Settings: with e2f8_human E2F8, A0AVK6
e2f8_human E2F8, A0AVK6, sequence (A0AVK6 whole entry): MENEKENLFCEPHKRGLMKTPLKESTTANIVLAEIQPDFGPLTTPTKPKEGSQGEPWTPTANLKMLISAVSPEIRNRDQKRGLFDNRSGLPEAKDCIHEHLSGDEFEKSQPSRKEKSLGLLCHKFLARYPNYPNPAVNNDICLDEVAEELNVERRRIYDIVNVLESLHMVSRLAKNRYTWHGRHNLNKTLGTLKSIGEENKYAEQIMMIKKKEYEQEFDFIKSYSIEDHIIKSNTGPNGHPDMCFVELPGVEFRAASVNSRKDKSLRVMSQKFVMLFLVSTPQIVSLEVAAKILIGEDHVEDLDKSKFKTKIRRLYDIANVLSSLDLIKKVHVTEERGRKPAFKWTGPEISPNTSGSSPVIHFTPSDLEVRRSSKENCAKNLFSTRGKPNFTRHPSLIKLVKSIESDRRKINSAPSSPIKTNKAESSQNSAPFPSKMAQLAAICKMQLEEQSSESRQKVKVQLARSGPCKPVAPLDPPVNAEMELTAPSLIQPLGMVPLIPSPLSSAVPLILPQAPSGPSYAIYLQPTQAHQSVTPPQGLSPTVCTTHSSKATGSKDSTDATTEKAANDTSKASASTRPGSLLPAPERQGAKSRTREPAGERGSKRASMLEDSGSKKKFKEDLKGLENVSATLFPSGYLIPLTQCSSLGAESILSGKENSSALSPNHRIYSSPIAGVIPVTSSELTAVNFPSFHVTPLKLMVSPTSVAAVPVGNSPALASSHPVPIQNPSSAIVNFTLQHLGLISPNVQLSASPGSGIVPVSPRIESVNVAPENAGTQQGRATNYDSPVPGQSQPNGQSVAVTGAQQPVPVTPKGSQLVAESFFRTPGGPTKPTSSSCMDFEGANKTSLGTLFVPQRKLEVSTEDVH

| effect of a mutation on the interaction | Variant |
| --- | --- |
| with no effect | Y87C |

Variants of: B1
Settings: with if4e_human EIF4E

| effect of a mutation on the interaction | Variant |
| --- | --- |
| with no effect | Y87C |

Variants of: B1
Settings: with epha7_human EPHA7, Q15375

| effect of a mutation on the interaction | Variant |
| --- | --- |
| with no effect | Y87C |

Variants of: B1
Settings: with ephb1_human EPHB1, P54762

| effect of a mutation on the interaction | Variant |
| --- | --- |
| with no effect | Y87C |

Variants of: B1
Settings: with erbb3_human ERBB3, P21860

| effect of a mutation on the interaction | Variant |
| --- | --- |
| with no effect | Y87C |

Variants of: B1
Settings: with erbb4_human ERBB4, Q15303

| effect of a mutation on the interaction | Variant |
| --- | --- |
| with no effect | Y87C |

Variants of: B1
Settings: with esr1_human ESR1, P03372
esr1_human ESR1, P03372, sequence (P03372 whole entry): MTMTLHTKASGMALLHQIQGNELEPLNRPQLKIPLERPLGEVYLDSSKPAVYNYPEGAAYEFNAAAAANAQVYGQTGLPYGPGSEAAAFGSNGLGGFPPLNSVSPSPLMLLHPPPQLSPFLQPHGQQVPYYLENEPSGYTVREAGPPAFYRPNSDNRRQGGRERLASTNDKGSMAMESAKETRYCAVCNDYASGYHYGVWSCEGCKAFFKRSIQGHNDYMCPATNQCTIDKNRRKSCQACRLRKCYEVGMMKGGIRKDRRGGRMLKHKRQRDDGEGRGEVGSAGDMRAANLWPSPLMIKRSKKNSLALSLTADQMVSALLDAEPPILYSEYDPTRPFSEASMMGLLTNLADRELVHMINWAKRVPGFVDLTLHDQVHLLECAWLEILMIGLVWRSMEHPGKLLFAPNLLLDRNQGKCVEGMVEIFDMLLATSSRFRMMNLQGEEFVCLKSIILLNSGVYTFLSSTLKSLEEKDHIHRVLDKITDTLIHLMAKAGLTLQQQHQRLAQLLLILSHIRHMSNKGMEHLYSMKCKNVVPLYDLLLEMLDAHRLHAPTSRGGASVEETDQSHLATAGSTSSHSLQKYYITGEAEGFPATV

| effect of a mutation on the interaction | Variant |
| --- | --- |
| with no effect | Y87C |

Variants of: B1
Settings: with etv1_human ETV1, P50549

| effect of a mutation on the interaction | Variant |
| --- | --- |
| with no effect | Y87C |
